Data on 9 molecules can be found in patent US20180002435A1 (CELLECTIS, published 2018).

Sequences and labels used below:
T1: recombinant BCMA protein fused to an FC fragment (SEQ ID NO 151)
T1 construct: also called BCMA-Fc fusion protein
T1 chain: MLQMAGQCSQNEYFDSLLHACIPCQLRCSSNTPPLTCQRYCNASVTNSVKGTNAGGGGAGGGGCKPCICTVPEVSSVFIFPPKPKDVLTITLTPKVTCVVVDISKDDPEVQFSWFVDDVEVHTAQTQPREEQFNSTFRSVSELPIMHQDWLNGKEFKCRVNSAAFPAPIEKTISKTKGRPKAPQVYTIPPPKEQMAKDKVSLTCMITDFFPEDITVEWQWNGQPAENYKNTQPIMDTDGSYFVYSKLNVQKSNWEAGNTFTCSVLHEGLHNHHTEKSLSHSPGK

B1: anti-BCMA CAR of SEQ ID NO 132 (other)
chain: GGGGSCPYSNPSLCSGGGGSGGGGSEVQLLESGGGLVQPGGSLRLSCAASGFTFSSYAMNWVRQAPGKGLEWVSAILSSGGSTYYADSVKGRFTISRDNSKNTLYLQMNSLRAEDTAVYYCARYWPMDIWGQGTLVTVSSGGSCPYSNPSLCSGGSEIVLTQSPGTLSLSPGERATLSCRGGQSVSSSYLAWYQQKPGQAPRLLMYDASIRATGIPDRFSGSGSGTDFTLTISRLEPEDFAVYYCQQYQSWPLTFGQGTKVEIKSDPTTTPAPRPPTPAPTIASQPLSLRPEACRPAAGGAVHTRGLDFACDIYIWAPLAGTCGVLLLSLVITLYCRRGRKKLLYIFKQPFMRPVQTTQEEDGCSCRFPEEEEGGCELRVKFSRSADAPAYQQGQNQLYNELNLGRREEYDVLDKRRGRDPEMGGKPRRKNPQEGLYNELQKDKMAEAYSEIGMKGERRRGKGHDGLYQGLSTATKDTYDALHMQALPPRE
notes: Single-chain CAR on primary T cells
B2: anti-BCMA CAR of SEQ ID NO 136 (other)
chain: GGGGSCPYSNPSLCSGGGGSGGGGSEVQLLESGGGLVQPGGSLRLSCAASGFTFSSYAMNWVRQAPGKGLEWVSAILSSGGSTYYADSVKGRFTISRDNSKNTLYLQMNSLRAEDTAVYYCARYWPMDIWGQGTLVTVSSGGGGSGGGGSGGGGSEIVLTQSPGTLSLSPGERATLSCRGGQSVSSSYLAWYQQKPGQAPRLLMYDASIRATGIPDRFSGSGSGTDFTLTISRLEPEDFAVYYCQQYQSWPLTFGQGTKVEIKSDPGSGGGGSCPYSNPSLCSGGGGSAPTTTPAPRPPTPAPTIASQPLSLRPEACRPAAGGAVHTRGLDFACDIYIWAPLAGTCGVLLLSLVITLYCRRGRKKLLYIFKQPFMRPVQTTQEEDGCSCRFPEEEEGGCELRVKFSRSADAPAYQQGQNQLYNELNLGRREEYDVLDKRRGRDPEMGGKPRRKNPQEGLYNELQKDKMAEAYSEIGMKGERRRGKGHDGLYQGLSTATKDTYDALHMQALPPRE
notes: as for B1
B3: anti-BCMA CAR of SEQ ID NO 134 (other)
chain: EVQLLESGGGLVQPGGSLRLSCAASGFTFSSYAMNWVRQAPGKGLEWVSAILSSGGSTYYADSVKGRFTISRDNSKNTLYLQMNSLRAEDTAVYYCARYWPMDIWGQGTLVTVSSGGSCPYSNPSLCSGGSEIVLTQSPGTLSLSPGERATLSCRGGQSVSSSYLAWYQQKPGQAPRLLMYDASIRATGIPDRFSGSGSGTDFTLTISRLEPEDFAVYYCQQYQSWPLTFGQGTKVEIKSDPGSGGGGSCPYSNPSLCSGGGGSAPTTTPAPRPPTPAPTIASQPLSLRPEACRPAAGGAVHTRGLDFACDIYIWAPLAGTCGVLLLSLVITLYCRRGRKKLLYIFKQPFMRPVQTTQEEDGCSCRFPEEEEGGCELRVKFSRSADAPAYQQGQNQLYNELNLGRREEYDVLDKRRGRDPEMGGKPRRKNPQEGLYNELQKDKMAEAYSEIGMKGERRRGKGHDGLYQGLSTATKDTYDALHMQALPPRE
notes: as for B1
B4: anti-BCMA CAR of SEQ ID NO 135 (other)
chain: EVQLLESGGGLVQPGGSLRLSCAASGFTFSSYAMNWVRQAPGKGLEWVSAILSSGGSTYYADSVKGRFTISRDNSKNTLYLQMNSLRAEDTAVYYCARYWPMDIWGQGTLVTVSSGGGGGSCPYSNPSLCSGGGGGSEIVLTQSPGTLSLSPGERATLSCRGGQSVSSSYLAWYQQKPGQAPRLLMYDASIRATGIPDRFSGSGSGTDFTLTISRLEPEDFAVYYCQQYQSWPLTFGQGTKVEIKSDPGSGGGGSCPYSNPSLCSGGGGSAPTTTPAPRPPTPAPTIASQPLSLRPEACRPAAGGAVHTRGLDFACDIYIWAPLAGTCGVLLLSLVITLYCRRGRKKLLYIFKQPFMRPVQTTQEEDGCSCRFPEEEEGGCELRVKFSRSADAPAYQQGQNQLYNELNLGRREEYDVLDKRRGRDPEMGGKPRRKNPQEGLYNELQKDKMAEAYSEIGMKGERRRGKGHDGLYQGLSTATKDTYDALHMQALPPRE
notes: as for B1
B5: anti-BCMA CAR of SEQ ID NO 138 (other)
chain: GGGGSCPYSNPSLCSGGGGSGGGGSEVQLLESGGGLVQPGGSLRLSCAASGFTFSSYAMNWVRQAPGKGLEWVSAILSSGGSTYYADSVKGRFTISRDNSKNTLYLQMNSLRAEDTAVYYCARYWPMDIWGQGTLVTVSSGGGGGSCPYSNPSLCSGGGGGSEIVLTQSPGTLSLSPGERATLSCRGGQSVSSSYLAWYQQKPGQAPRLLMYDASIRATGIPDRFSGSGSGTDFTLTISRLEPEDFAVYYCQQYQSWPLTFGQGTKVEIKSDPGSGGGGSCPYSNPSLCSGGGGSAPTTTPAPRPPTPAPTIASQPLSLRPEACRPAAGGAVHTRGLDFACDIYIWAPLAGTCGVLLLSLVITLYCRRGRKKLLYIFKQPFMRPVQTTQEEDGCSCRFPEEEEGGCELRVKFSRSADAPAYQQGQNQLYNELNLGRREEYDVLDKRRGRDPEMGGKPRRKNPQEGLYNELQKDKMAEAYSEIGMKGERRRGKGHDGLYQGLSTATKDTYDALHMQALPPRE
notes: as for B1
B6: anti-BCMA CAR of SEQ ID NO 137 (other)
chain: GGGGSCPYSNPSLCSGGGGSGGGGSEVQLLESGGGLVQPGGSLRLSCAASGFTFSSYAMNWVRQAPGKGLEWVSAILSSGGSTYYADSVKGRFTISRDNSKNTLYLQMNSLRAEDTAVYYCARYWPMDIWGQGTLVTVSSGGSCPYSNPSLCSGGSEIVLTQSPGTLSLSPGERATLSCRGGQSVSSSYLAWYQQKPGQAPRLLMYDASIRATGIPDRFSGSGSGTDFTLTISRLEPEDFAVYYCQQYQSWPLTFGQGTKVEIKSDPGSGGGGSCPYSNPSLCSGGGGSAPTTTPAPRPPTPAPTIASQPLSLRPEACRPAAGGAVHTRGLDFACDIYIWAPLAGTCGVLLLSLVITLYCRRGRKKLLYIFKQPFMRPVQTTQEEDGCSCRFPEEEEGGCELRVKFSRSADAPAYQQGQNQLYNELNLGRREEYDVLDKRRGRDPEMGGKPRRKNPQEGLYNELQKDKMAEAYSEIGMKGERRRGKGHDGLYQGLSTATKDTYDALHMQALPPRE
notes: as for B1
B7: anti-BCMA CAR of SEQ ID NO 131 (other)
chain: EVQLLESGGGLVQPGGSLRLSCAASGFTFSSYAMNWVRQAPGKGLEWVSAILSSGGSTYYADSVKGRFTISRDNSKNTLYLQMNSLRAEDTAVYYCARYWPMDIWGQGTLVTVSSGGGGGSCPYSNPSLCSGGGGGSEIVLTQSPGTLSLSPGERATLSCRGGQSVSSSYLAWYQQKPGQAPRLLMYDASIRATGIPDRFSGSGSGTDFTLTISRLEPEDFAVYYCQQYQSWPLTFGQGTKVEIKSDPTTTPAPRPPTPAPTIASQPLSLRPEACRPAAGGAVHTRGLDFACDIYIWAPLAGTCGVLLLSLVITLYCRRGRKKLLYIFKQPFMRPVQTTQEEDGCSCRFPEEEEGGCELRVKFSRSADAPAYQQGQNQLYNELNLGRREEYDVLDKRRGRDPEMGGKPRRKNPQEGLYNELQKDKMAEAYSEIGMKGERRRGKGHDGLYQGLSTATKDTYDALHMQALPPRE
notes: as for B1
B8: anti-BCMA CAR of SEQ ID NO 133 (other)
chain: GGGGSCPYSNPSLCSGGGGSGGGGSEVQLLESGGGLVQPGGSLRLSCAASGFTFSSYAMNWVRQAPGKGLEWVSAILSSGGSTYYADSVKGRFTISRDNSKNTLYLQMNSLRAEDTAVYYCARYWPMDIWGQGTLVTVSSGGGGGSCPYSNPSLCSGGGGGSEIVLTQSPGTLSLSPGERATLSCRGGQSVSSSYLAWYQQKPGQAPRLLMYDASIRATGIPDRFSGSGSGTDFTLTISRLEPEDFAVYYCQQYQSWPLTFGQGTKVEIKSDPTTTPAPRPPTPAPTIASQPLSLRPEACRPAAGGAVHTRGLDFACDIYIWAPLAGTCGVLLLSLVITLYCRRGRKKLLYIFKQPFMRPVQTTQEEDGCSCRFPEEEEGGCELRVKFSRSADAPAYQQGQNQLYNELNLGRREEYDVLDKRRGRDPEMGGKPRRKNPQEGLYNELQKDKMAEAYSEIGMKGERRRGKGHDGLYQGLSTATKDTYDALHMQALPPRE
notes: as for B1
B9: anti-BCMA CAR of SEQ ID NO 130 (other)
chain: EVQLLESGGGLVQPGGSLRLSCAASGFTFSSYAMNWVRQAPGKGLEWVSAILSSGGSTYYADSVKGRFTISRDNSKNTLYLQMNSLRAEDTAVYYCARYWPMDIWGQGTLVTVSSGGSCPYSNPSLCSGGSEIVLTQSPGTLSLSPGERATLSCRGGQSVSSSYLAWYQQKPGQAPRLLMYDASIRATGIPDRFSGSGSGTDFTLTISRLEPEDFAVYYCQQYQSWPLTFGQGTKVEIKSDPTTTPAPRPPTPAPTIASQPLSLRPEACRPAAGGAVHTRGLDFACDIYIWAPLAGTCGVLLLSLVITLYCRRGRKKLLYIFKQPFMRPVQTTQEEDGCSCRFPEEEEGGCELRVKFSRSADAPAYQQGQNQLYNELNLGRREEYDVLDKRRGRDPEMGGKPRRKNPQEGLYNELQKDKMAEAYSEIGMKGERRRGKGHDGLYQGLSTATKDTYDALHMQALPPRE
notes: as for B1

The target in this test is T1, recombinant BCMA protein fused to an FC …. Kind of test: flow cytometry of CAR T cells, BCMA-Fc and PE labeled anti-FC antibody. As to the method: The CDC assay consisted in incubating 0.2 10⁶ transfected cells either alone, or in the presence of Rituximab (RTX, ROCHE, 400 ng) and Babby Rabbit Complement (BRC, AbD Serotec, ref#C12CA, 100 μL of the solution diluted according to the manufacturer protocol) for 2 hours at 37° C. in a final volume of 400 μL of Xvivo 10% FBS. At the end of incubation, anti BCMA-CAR T cells were recovered and labeled with recombinant BCMA protein fused to an FC fragment (SEQ ID NO 151) and a PE labeled anti-FC secondary monoclonal antibody (Jackson ImmunoResearch, ref#115-115-164, diluted 1/200). Cells were then recovered in PFA 4% before being analyzed by flow cytometry. The flow cytometry gating strategy was to determine the viability of anti-BCMA CAR positive T cells (PE positive cells) among the singlet found in the total population of cells. This analysis was performed on cells incubated alone and in the presence of RTX and BRC. Results are expressed as the ratio named “Relative frequency of viable cells among BCMA CAR positive T cells (with respect to control experiment)” described below: […]
Background: Flow cytometry measures light scatter and fluorescence of single cells or particles in a stream.
With B1, the binding result was “binds”. Under B2 stands “binds”; under B3, “binds”; under B4, “binds”. Regarding B5, the binding result is reported as “binds”.

On to B6, for which the binding result is on record as “binds”. Take B7: the binding result was “binds”. For the molecule B8, the binding result was “binds”. With B9, the binding result is reported as “binds”.
